Test results from patent publication US9175313B2, “Three-dimensional structure of isoprene synthase and its use thereof for generating variants” (Danisco US Inc., priority 2009, dated 2015).

Columns and labels:
[1] = DMAPP assay of site evaluation library (SEL) lysates with ELISA protein quantitation: specific activity ranked as performance index; assay type: biochemical; conditions: primary SEL screen; activity on DMAPP per unit weight relative to the parental molecule (parent = 1)
Experimental: 1. Prepared Patch Plates from Glycerol Stock Plates. Using a V&S 96 pin Replication Tool, cultures were patched onto a LB Agar 35 CMP/50 Kan large patch plates from overnight glycerol stock plates. Plates were incubated at 30° C. overnight for 20 to 24 hr. Cultures can be stored at 4° C. for up to a week.
2. Prepared Overnight Growth Plates. 500 mL of LB 35 CMP/50 Kan media were prepared. 300 μL/well of LB 35 CMP/50 Kan media were dispensed into deep 96 well plates (VWR). Using a V&S Replication Tool, the patch inoculum was transferred into deep 96 well plate by touching the tool pins to respective patch and using a circular motion to coat the pins with inoculum. The media was inoculated by dipping the tool then shaking the pin within the well. The overnight growth plates were sealed using a Breathe-Easier Sealing Membrane (Diversified Biotech). The plates were incubated in a Vertiga Shaking Incubator at 30° C. with shaking at 800 rpm overnight for 16 to 18 hr.
3. Prepared Day Growth Plate. Deep 96 well plates were prepared by dispensing 588 μL/well of LB 35 CMP/50 Kan media. Overnight growth plates were removed from the incubator. Overnight cultures were diluted 50-fold and 12 μL of overnight culture were transferred to day growth plates containing 588 μL/well of LB media containing antiobiotics. Overnight growth plates were sealed with new Breathe-Easier Sealing Membranes. Cultures were incubated at 30° C. and 800 rpm for 2.5 hr. Frozen 12 mM IPTG (Sigma) vials were removed from −20° C. and placed in a hood to thaw.
4. OD600 Plate Read of Overnight, Induction, and Harvest. 150 μL 1×PBS were dispensed into 96 well Costar Read Plates (#9017). 50 μL of culture samples were transferred to Read Plates. The OD600 reading was recorded using a Spectramax Plate Reader (Molecular Devices).
5. Induction. Electronic multi-channel pipettors were prepared to dispense 4×20 μL/well of IPTG (if 4× replicates). The multi-dispense option in the electronic pipettor was adjusted if more replicates was necessary. Thawed 12 mM IPTG was poured into 50 mL or 100 mL sterile reservoirs. 20 μL/well of IPTG into each 600 μL/well culture. Overnight growth plates were resealed. Cultures were incubated at 30° C. and 800 rpm for 4 hr. OD600 readings of plates were recorded according instructions above.
6. Harvest. 400 μL of induced culture were transferred to 800 μL Grenier storage plates. Plates were centrifuged at 3300 rpm for 20 min at 2° to 8° C. in a low speed benchtop centrifuge. Supernatants were discarded, pellets should stay in the conical bottom well. Residual supernatants were slapped out onto a paper towel on the benchtop. Plates were sealed with an aluminum foil membrane (Beckman-Coulter). Plates were covered with a plastic plate lid if available. Storage plates were labeled accordingly and stored frozen at −80° C.
Plates containing induced cell pellets were removed from the −80° C. freezer and allowed to thaw on the benchtop for 30 minutes prior to lysis. 200 μl of lysis buffer (50 mM Tris pH 8, 25 mM MgCl2, 74 μg/ml DNase I, 250 U/ml lysozyme, 0.1% Tween 20, 0.5 mM PMSF) was added to each pellet, and plates were incubated on an Eppendorf Thermomixer at 25° C. for 30 minutes at 1200 rpm. After lysis, plates were centrifuged at 3450 rpm for 15 minutes at 4° C. Supernatants were then removed and diluted 10-fold prior to DMAPP assay. 80 μl of the diluted supernatant was added to 20 μl of the DMAPP working stock (20 mM DMAPP in 0.1 M Phosphate Buffer pH 8.2, DMAPP triammonium salt, Cayman chemicals) in a Zinsser glass block. Blocks were then sealed with aluminum sealing membranes, and incubated in Thermomixers at 25° C. for 30 minutes at 450 rpm. Reactions were stopped by incubating blocks on Thermomixers at 70° C. for 12 minutes at 450 rpm. GC-MS was then used for headspace measurements to calculate the amount of isoprene produced by each lysates.
Headspace Assay. […]

[2] = Specific activity measurement of purified isoprene synthase variants (4 mM DMAPP, 30 C, GC-MS headspace); assay type: biochemical; conditions: 50 mM NaCl, 50 mM Tris pH = 8, 30° C.; for Variant S.A./WT S.A.: ratio to WT
Experimental: 1. Initial Purification—Resuspend the pellet in 3 ml of fresh lysis buffer. Break cells by passing them through the French Press using the small cylinder. Centrifuge samples for 1 hour at 30,000×G and collect the supernatant. Retain pellet in order to test for presence of insoluble protein. Pre equilibrate 0.5 mL Ni Sepharose 6 Fast Flow resin (Amersham) in a 20 ml disposable column with 10 mL of Ni wash buffer. Add protein to column and shake for 60 min at 4 C to bind protein. Elute protein with 2.5 mL Ni elution buffer.
2. Buffer Exchange—Equilibrate a PD-10 column (GE Healthcare) with 25 mL of PD-10 buffer. Load protein on to column and elute with 3.5 mL of PD-10 buffer.
10 uL of purified enzyme was incubated with 4 mM DMAPP, 50 mM MgCl2 in a buffer containing 50 mM Tris and 50 mM NaCl (pH=8) to a final volume of 100 uL for 15 min. at 30 C in gas tight 2 mL vials. Reactions were terminated with the addition of 100 uL of […] EDTA, pH=8. Samples were analyzed by GC-MS to determine the concentration of isoprene in the headspace of the vials. All specific activity measurements were performed in triplicate.
Protein concentration was determined by measuring the absorbance of each protein solution at 280 nm on a Helwlett Pachard 8453 UV-Vis spectrophotometer and converting the absorbance to protein concentration using the extinction coefficient as determined on the Expasy website (Gasteiger E., Hoogland C., Gattiker A., Duvaud S., Wilkins M. R., Appel R. D., Bairoch A.; Protein Identification and Analysis Tools on the ExPASy Server; (In) John M. Walker (ed): The Proteomics Protocols Handbook, Humana Press (2005). pp. 571-607). The protein concentrations of isoprene synthase variants assayed for KM and kcat determination were verified by comparative gel electrophoresis of a dilution series of each protein (FIG. 61).

Molecule	performance index [1]	S.A. [2]	Variant S.A./WT S.A. [2]
D345R: P. alba IspS variant (protein, UniProt Q50L36 38-595, looked up, variant D345R) Isoprene synthase, …: CSVSTENVSFTETETEARRSANYEPNSWDYDYLLSSDTDESIEVYKDKAKKLEAEVRREINNEKAEFLTLLELIDNVQRLGLGYRFESDIRGALDRFVSSGGFDAVTKTSLHGTALSFRLLRQHGFEVSQEAFSGFKDQNGNFLENLKEDIKAILSLYEASFLALEGENILDEAKVFAISHLKELSEEKIGKELAEQVNHALELPLHRRTQRLEAVWSIEAYRKKEDANQVLLELAILDYNMIQSVYQRDLRETSRWWRRVGLATKLHFARDRLIESFYWAVGVAFEPQYSDCRNSVAKMFSFVTIIRDIYDVYGTLDELELFTDAVERWDVNAINDLPDYMKLCFLALYNTINEIAYDNLKDKGENILPYLTKAWADLCNAFLQEAKWLYNKSTPTFDDYFGNAWKSSSGPLQLVFAYFAVVQNIKKEEIENLQKYHDTISRPSHIFRLCNDLASASAEIARGETANSVSCYMRTKGISEELATESVMNLIDETWKKMNKEKLGGSLFAKPFVETAINLARQSHCTYHNGDAHTSPDELTRKRVLSVITEPILPFER	0.40		
L469L: SEL member with the wild type residue at site 469 (wild type codon substituted) (protein, UniProt Q50L36 38-595, looked up) Isoprene synthase, …: CSVSTENVSFTETETEARRSANYEPNSWDYDYLLSSDTDESIEVYKDKAKKLEAEVRREINNEKAEFLTLLELIDNVQRLGLGYRFESDIRGALDRFVSSGGFDAVTKTSLHGTALSFRLLRQHGFEVSQEAFSGFKDQNGNFLENLKEDIKAILSLYEASFLALEGENILDEAKVFAISHLKELSEEKIGKELAEQVNHALELPLHRRTQRLEAVWSIEAYRKKEDANQVLLELAILDYNMIQSVYQRDLRETSRWWRRVGLATKLHFARDRLIESFYWAVGVAFEPQYSDCRNSVAKMFSFVTIIDDIYDVYGTLDELELFTDAVERWDVNAINDLPDYMKLCFLALYNTINEIAYDNLKDKGENILPYLTKAWADLCNAFLQEAKWLYNKSTPTFDDYFGNAWKSSSGPLQLVFAYFAVVQNIKKEEIENLQKYHDTISRPSHIFRLCNDLASASAEIARGETANSVSCYMRTKGISEELATESVMNLIDETWKKMNKEKLGGSLFAKPFVETAINLARQSHCTYHNGDAHTSPDELTRKRVLSVITEPILPFER	0.96		
D345P: P. alba IspS variant (protein, UniProt Q50L36 38-595, looked up, variant D345P) Isoprene synthase, …: CSVSTENVSFTETETEARRSANYEPNSWDYDYLLSSDTDESIEVYKDKAKKLEAEVRREINNEKAEFLTLLELIDNVQRLGLGYRFESDIRGALDRFVSSGGFDAVTKTSLHGTALSFRLLRQHGFEVSQEAFSGFKDQNGNFLENLKEDIKAILSLYEASFLALEGENILDEAKVFAISHLKELSEEKIGKELAEQVNHALELPLHRRTQRLEAVWSIEAYRKKEDANQVLLELAILDYNMIQSVYQRDLRETSRWWRRVGLATKLHFARDRLIESFYWAVGVAFEPQYSDCRNSVAKMFSFVTIIPDIYDVYGTLDELELFTDAVERWDVNAINDLPDYMKLCFLALYNTINEIAYDNLKDKGENILPYLTKAWADLCNAFLQEAKWLYNKSTPTFDDYFGNAWKSSSGPLQLVFAYFAVVQNIKKEEIENLQKYHDTISRPSHIFRLCNDLASASAEIARGETANSVSCYMRTKGISEELATESVMNLIDETWKKMNKEKLGGSLFAKPFVETAINLARQSHCTYHNGDAHTSPDELTRKRVLSVITEPILPFER	0.35		
NSC: P. alba MEA A453N G491S T536C (+) TEV; pDW107, SEQ ID NO: 81 (protein, TEV site) MEARRSANYEPNSWDYDYLLSSDTDESIEVYKDKAKKLEAEVRREINNEKAEFLTLLELIDNVQRLGLGYRFESDIRGALDRFVSSGGFDAVTKTSLHGTALSFRLLRQHGFEVSQEAFSGFKDQNGNFLENLKEDIKAILSLYEASFLALEGENILDEAKVFAISHLKELSEEKIGKELAEQVNHALELPLHRRTQRLEAVWSIEAYRKKEDANQVLLELAILDYNMIQSVYQRDLRETSRWWRRVGLATKLHFARDRLIESFYWAVGVAFEPQYSDCRNSVAKMFSFVTIIDDIYDVYGTLDELELFTDAVERWDVNAINDLPDYMKLCFLALYNTINEIAYDNLKDKGENILPYLTKAWADLCNAFLQEAKWLYNKSTPTFDDYFGNAWKSSSGPLQLVFAYFAVVQNIKKEEIENLQKYHDTISRPSHIFRLCNDLASASAEIARGETNNSVSCYMRTKGISEELATESVMNLIDETWKKMNKEKLSGSLFAKPFVETAINLARQSHCTYHNGDAHTSPDELTRKRVLSVICEPILPFERENLYFQGLEHHHHHH		390 ± 20 nmol/mg/min	0.8
NSPC: P. alba MEA A453N G491S L494P T536C (+) TEV; pDW109, SEQ ID NO: 85 (protein, TEV site) MEARRSANYEPNSWDYDYLLSSDTDESIEVYKDKAKKLEAEVRREINNEKAEFLTLLELIDNVQRLGLGYRFESDIRGALDRFVSSGGFDAVTKTSLHGTALSFRLLRQHGFEVSQEAFSGFKDQNGNFLENLKEDIKAILSLYEASFLALEGENILDEAKVFAISHLKELSEEKIGKELAEQVNHALELPLHRRTQRLEAVWSIEAYRKKEDANQVLLELAILDYNMIQSVYQRDLRETSRWWRRVGLATKLHFARDRLIESFYWAVGVAFEPQYSDCRNSVAKMFSFVTIIDDIYDVYGTLDELELFTDAVERWDVNAINDLPDYMKLCFLALYNTINEIAYDNLKDKGENILPYLTKAWADLCNAFLQEAKWLYNKSTPTFDDYFGNAWKSSSGPLQLVFAYFAVVQNIKKEEIENLQKYHDTISRPSHIFRLCNDLASASAEIARGETNNSVSCYMRTKGISEELATESVMNLIDETWKKMNKEKLSGSPFAKPFVETAINLARQSHCTYHNGDAHTSPDELTRKRVLSVICEPILPFERENLYFQGLEHHHHHH		502 ± 6 nmol/mg/min	1.1
